The target in the test is T1, recombinant TGFβ (Homo sapiens (Human), UniProt P01137 279-390, Active TGFβ is a disulfide-linked homodimer ('TGFβ exists as a dimer'). One protomer is given; the assay form is two identical copies.).
T1 construct: also called TGF-beta; transforming growth factor beta
The test can be described thus: solution incubation of TGFβ (500 pg/mL) with a range of Fc:TβRII concentrations, 20 min at room temperature; remaining unbound TGFβ read on an anti-TGFβ1 ELISA plate. The method, then: The Fc:TβRII recombinant protein (glycosylated) was tested in vitro using enzyme-linked immunosorbent assay (ELISA) to verify a selective and high binding affinity for TGFβ. A known quantity of recombinant TGFβ (500 pg/mL) was incubated with a range of concentrations of Fc:TβRII in aqueous solution at room temperature for 20 minutes. Aliquots from each sample were applied to an anti-TGFβ1 ELISA plate to measure the remaining unbound TGFβ.

T1 sequence (P01137 279-390 limits assumed, form in doubt): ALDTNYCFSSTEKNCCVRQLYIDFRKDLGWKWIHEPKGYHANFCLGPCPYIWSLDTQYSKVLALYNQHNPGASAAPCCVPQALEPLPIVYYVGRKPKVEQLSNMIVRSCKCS

B1: Fc:TβRII recombinant protein (glycosylated) (Fc fusion)
chain: TIPPHVQKSVNNDMIVTDNNGAVKFPQLCKFCDVRFSTCDNQKSCMSNCSITSICEKPQEVCVAVWRKNDENITLETVCHDPKLPYHDFILEDAASPKCIMKEKKKPGETFFMCSCSSDECNDNIIFSEEYNTSNPDLLLVIFQSSSTMVRSVECPPCPAPPVAGPSVFLFPPKPKDTLMISRTPEVTCVVVDVSHEDPEVQFNWYVDGMEVHNAKTKPREEQFNSTFRVVSVLTVVHQDWLNGKEYKCKVSNKGLPAPIEKTISKTKGQPREPQVYTLPPSREEMTKNQVSLTCLVKGFYPSDIAVEWESNGQPENNYKTTPPMLDSDGSFFLYSKLTVDKSRWQQGNVFSCSVMHEALHNHYTQKSLSLSPGK
modifications: N-glycosylated (expressed in HEK 293T cells); sites not stated
notes: Purified on Protein A from HEK 293T supernatant; also called Fc:TβRII protein; unconjugated Fc:TβRII protein
Consider B1, for which the IC50 came out at 0.27 µg/mL.

The values above are taken from patent US20260042817A1 (PROVIDENCE HEALTH AND SERVICES OREGON, published 2026).
